Data: PMC4176161 (Nucleic Acids Research, 2014)

B1: …2 (SEP2) (natural protein)
chain: not shown
B2: …4 (SEP4) (natural protein)
chain: MGRGKVELKRIENKINRQVTFAKRRNGLLKKAYELSVLCDAEIALLIFSNRGKLYEFCSSPSGMARTVDKYRKHSYATMDPNQSAKDLQDKYQDYLKLKSRVEILQHSQRHLLGEELSEMDVNELEHLERQVDASLRQIRSTKARSMLDQLSDLKTKEEMLLETNRDLRRKLEDSDAALTQSFWGSSAAEQQQQHQQQQQGMSSYQSNPPIQEAGFFKPLQGNVALQMSSHYNHNPANATNSATTSQNVNGFFPGWMV
B3: …1 (SEP1) (natural protein)
chain: MGRGRVELKRIENKINRQVTFAKRRNGLLKKAYELSVLCDAEVALIIFSNRGKLYEFCSSSNMLKTLDRYQKCSYGSIEVNNKPAKELENSYREYLKLKGRYENLQRQQRNLLGEDLGPLNSKELEQLERQLDGSLKQVRSIKTQYMLDQLSDLQNKEQMLLETNRALAMKLDDMIGVRSHHMGGGGGWEGGEQNVTYAHHQAQSQGLYQPLECNPTLQMGYDNPVCSEQITATTQAQAQQGNGYIPGWML

Target: the molecule itself
Test: native gel or EMSA

| Protein | stoichiometry N |
| --- | --- |
| B1 | 4 |
| B2 | 4 |
| B3 | 4 |

Target: the molecule itself
Test: native gel or EMSA
Remark: another data set of the same source

| Protein | stoichiometry N |
| --- | --- |
| B1 | 2 |
| B2 | 2 |
| B3 | 2 |
